Settings in all cases: both partners purified
The target in experiment [1] is T1, gp120 (HIV strain BL035.W6M.C1) (HIV-1 strain BL035.W6M.C1).
T1 construct: gp120, the surface subunit cut from HIV-1 Env gp160, strain BL035.W6M.C1 (clade A); Called monomeric in the legends; also called monomeric BL035.W6M.C1 gp120; monomeric gp120; source: bought: Immune Technology Corp
In words: BLI; 157-lineage naive antibodies as ligand; monomeric BL035 gp120 as analyte at 250 nM; without the double reference approach.

In experiment [2] the target is T1, gp120 (HIV strain BL035.W6M.C1). Put plainly: BLI; mAb lineage members captured on anti-human IgG Fc biosensors (ligand); monomeric gp41 ectodomain or BL035.W6M.C1 gp120 as analyte at 62.5 nM. For orientation: In BLI a coated tip is dipped into the sample, and binding shifts an interference pattern.
For experiment [3], the target named is T2, gp41 ectodomain (HIV strain C.ZA.1197MB) (HIV-1 strain C.ZA.1197MB).
T2 construct: gp41 ectodomain of HIV-1 Env, strain C.ZA.1197MB (clade C); Called monomeric in the legends; also called monomeric C.ZA.1197MB gp41 ectodomain; clade C gp41 ectodomain; source: bought: Immune Technology Corp
T2 chain: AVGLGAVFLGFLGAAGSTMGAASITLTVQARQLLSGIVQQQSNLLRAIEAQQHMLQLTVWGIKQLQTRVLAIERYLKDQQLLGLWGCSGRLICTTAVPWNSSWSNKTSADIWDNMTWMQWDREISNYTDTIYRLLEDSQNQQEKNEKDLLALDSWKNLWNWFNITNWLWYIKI
Put plainly: BLI; Octet RED; mAb (8 µg/mL) captured on anti-human IgG Fc biosensors (ligand); monomeric gp41 ectodomain or gp120 as analyte in a series of up to six two-fold dilutions; 30°C; 1X PBS, 0.1% BSA, 0.005% Tween-20, 0.02% sodium azide; association 180 s, dissociation 180 s; double referencing; 1:1 model.

This passage reports binding result and Kd results from publication PMC7884072, “Development of antibody-dependent cell cytotoxicity function in HIV-1 antibodies” (eLife, 2021).

B1: 157-0VHAVK (antibody, V domains shown)
VH: QVQLVQSGAEVKKPGSSVKVSCKASGGTFSSYAISWVRQAPGQGLEWMGGIIPILGIANYAQKFQGRVTITADESTSTAYMELSSLRSEDTAVYYCARGKVSSSDWFQPIYYYYMDVWGGGTTVTVSS
VL: EIVMTQSPATLSVSPGERATLSCRASQSISSYLAWYQQKPGQAPRLLIYDASNRATGIPARFSGSGSGTDFTLTISSLEPEDFAVYYCQQRSNSLPFGQGTRLEIK
notes: Whole human IgG1, kappa; source: HEK 293F, co-transfected, purified (protein G)
As for B1, the binding result in experiment [1] is given as “no binding (tested: 250 nM)”.

B2: 105-1VH1VK (antibody, V domains shown)
VH: EVQLVESGGGLVKPGGSLRLSCAASGFSFTNAYMSWVRQAPGKGLEWVGRIKSKADDGTTDYAAPVKGRFTISRDDSKNTLYLQMNSLKTEDTAVYYCTTGVMIANQDSYYYMDVWGKGTTVAVSS
VL: not shown
notes: as for B1
As to B2, in experiment [2], the binding result was “binds”.

B3: 072-0VH0VK (antibody, V domains shown)
VH: QVQLVQSGAEVKKPGSSVKVSCKASGGTFSSYAISWVRQAPGQGLEWMGGIIPILGIANYAQKFQGRVTITADESTSTAYMELSSLRSEDTAVYYCARHYDDSSGFFYGAFDIWGQGTTLTVSS
VL: DIQMTQSPSSLSASVGDRVTITCRASQGISNYLAWYQQKPGKVPKLLIYAASTLQSGVPSRFSGSGSGTDFTLTISSLQPEDVATYYCQKYNSAPWTFGQGTKVEIK
notes: 072-0VH, inferred naive heavy chain variable region (VH 1-69*11, DH 4-17*01, JH 3*02); 072-0VK, inferred naive kappa variable region (VK 1-27*01, JK 1*01); Whole human IgG1, kappa (Igγ1 vector Addgene 80795, Igκ vector Addgene 80796); also called 072 lineage inferred naive mAb; inferred naive precursor of the 072 lineage; source: HEK 293F, co-transfected, purified (protein G)
Consider B3, for which the Kd (usually a measure of binding affinity in units of concentration) in experiment [3] worked out at 34.4 nM.
